Data taken from patent publication US9670264B2, “Water soluble G-protein coupled receptor” (The Trustees of The University of Pennsylvania, priority 2013, dated 2017).

What was measured:
[1] = Secondary structure by circular dichroism (CD); assay type: physicochemical; details: CD 205-260 nm
Source text: The CD spectra indicated predominantly helical structures with a helical secondary structure content of ˜48% (estimations based on the molar ellipticity over the range 205 to 260 nm). The comparison of the helical content with that of the native human MUR expressed in yeast system in the presence of high concentration of detergent (0.1% SDS) is presented in Table 1.

[2] = Thermostability monitored by CD (222 nm); assay type: physicochemical; details: 5 mM sodium phosphate, pH=7.0; for melting point: 0.01% SDS
Description: The secondary structure of the water-soluble variant was determined through circular dichroism (CD). Circular dichroism (CD) spectra were recorded by using CD Spectrometer (Chirascan, AppliedPhotophysics Limited, Leatherhead, United Kingdom) with a scan speed of 1 nm/s and 1 mm path length. Corresponding blanks were used for calibration for each assay and subtracted from raw data. Two data sets were recorded and averaged to increase the signal-to-noise ratio. The CDNN CD spectra deconvolution software was utilized to determine the secondary structure content of the proteins. […] Absorbance was maintained lower than 1.0 to ensure sufficient light transmission. The temperature-dependence curve was plotted using GraphPad Prism® (version 5, GraphPad Software, Inc. La Jolla).

[3] = Effects of denaturant (urea) and reducing agent (2-ME), by CD and intrinsic tryptophan fluorescence; assay type: physicochemical
Description: CD and intrinsic tryptophan fluorescence were used to probe disulfide bond formation in the water-soluble variant. […] Even in 8 M urea, the protein retains some helical structure (Table 2). Upon addition of 2-ME, both the molar ellipticity and fluorescence further decreased, becoming more pronounced at the higher concentration of the reducing agent (200 mM). Thus the presence of an intramolecular disulfide bond is corroborated in the case of wsMUR-TM.
Of particular interest are the tryptophan residues located in the partially buried transmembrane locations of the model structure (positions 194, 295, and 320). The fluorescence associated with these residues is expected to be sensitive to the local hydrophobic environment and overall folding of the protein.
The decrease of the tryptophan fluorescence under denaturing conditions and in the presence of 2-ME is consistent with the changes in CD spectra observed under similar conditions. The requirement of the reducing agent to fully denature and unfold the protein indicates the relevance of an intramolecular disulfide bond in stabilizing the receptor structure. […] However, the CD and ligand-binding studies are consistent with the adoption of the proper protein tertiary structure and by extension with the formation of the correct disulfide bond.

[4] = test system: human μ opioid receptor expressed in HEK293 cells; test: Binding competition assay (TR-FRET/HTRF) between native human μ opioid receptor and water-soluble variants, with a fluorescent naltrexone-derived antagonist; details: FIG. 10, as for FIG. 7
Source text: FIG. 7. […] Data is used to calculate HTRF ratios, and represent the mean±standard error of mean of quadruplicates. ΔF is used for the comparison of different runs of the same assay which reflects the signal to background of the assay. ΔF=[(Ratiosample−Ratiobackgroud)/Ratiobackgroud] (%).
A recently developed methodology which uses a fluorescently labeled ligand and the native MUR was used to investigate the ligand-binding capabilities of the water-soluble receptors.

[5] = pH 7.0 + 0.1% SDS, expressed in yeast system
[6] = None (no denaturant or reducing agent; normalisation reference)

## Native MUR: native human μ receptor expressed in yeast system, in 0.1% SDS [reference compound]
[1]; [5]
  Helix content: 40.6%
  Others content: 40.5%
  Turn content: 18.9%

B1: wsMUR-TM: computationally designed transmembrane-only water-soluble variant of the human μ opioid receptor (protein)
chain: SMITAIKIHEEYKKVCEEGKKGNKLVMEVIVRYTKMKTATNIYIFNLAKADALAESTLPFQSVNKLMGTWPFGTILCKKVISIDYYNMFTSIFTLCTMSVDRYIAVCHPVKALDFRTPRNAKEENEKNWKLSSEIGKPVEKKATTKYRQGSIDCTLTFSHPTWYWEDKLKDEVFKKAFEEPVKKIKECYGLMILRLKSVRMLSGSKEKDRNLRRITRMVLVVVEVFIKCWTEIHKYVKEGKLVTIPETTFQTVSWHECIAKGYKNSCENPKLYEELDENFKRCFREFC
[2]; 10 to 90° C.
  temperature at which almost fully unfolded (almost complete loss in molar ellipticity): 90 °C
  temperature at which ellipticity starts to be lost significantly: ~62 °C
[2]; absence of cholesterol
  melting point: 82.9 °C
[2]; presence of cholesterol
  melting point: 89.3 °C
[3]; [6]
  Fluorescence Peak Intensity (%; 300-350 nm): 100.0%
  Molar Ellipticity (%; 222 nm): 100.0%
[3]; Urea (8M)
  Fluorescence Peak Intensity (%; 300-350 nm): 28.4%
  Molar Ellipticity (%; 222 nm): 40.0%
[3]; Urea (8M) 2-ME (25 mM)
  Fluorescence Peak Intensity (%; 300-350 nm): 23.9%
  Molar Ellipticity (%; 222 nm): 25.1%
[3]; Urea (8M) 2-ME (200 mM)
  Fluorescence Peak Intensity (%; 300-350 nm): 4.5%
  Molar Ellipticity (%; 222 nm): 0.0%
[1]; pH 7.0 in NaHPO4
  Helix content: 48.0%
  Others content: 37.4%
  Turn content: 14.6%

B2: wsMUR-TM+7mut: second wsMUR recombinant protein (protein)
chain: SMITAIKILEEYKKVCEEGRKGNKLVMEVIVRYTKMKTATNIYIFNLAKADALAESTLPFQSVNKLMGTWPFGTILCKKVISIDYYNMFTSIFTLCTMSVDRYIAVCHPVKALDFRTPRNAKEHNEKNWKLSSEIGKPVEKRATTKYRQGSIDCTLTFSHPTWYWEDKLKDTVFKKAFEEPVKVIKECYGLMILRLKSVRMLSGSKEKDRNLRRITRMVLVVVEVFIKCWTEIHKYVKEGKL
[4]
  binding activity (interaction with naltrexone): binding activity was also observed
